Where two headings read alike, the source gives them in different places.
How the values were obtained:
[1] = Aggregation / stability of on-column refolded protein on storage, stirring and freeze-thaw (visual analysis, SDS-PAGE, Western blot); assay type: physicochemical; details: for aggregation of on-column refolded protein on storage: stored at 4° C. one month, SDS-PAGE (TSA-1-C4: in PBS, also visual analysis, Western blot)
Experimental: FIG. 4A-C. On-column refolding of TSA-1-NT. A, chromatographic profile of TSA-1-NT refolded by Size Exclusion Chromatography; B, samples were collected and analyzed by SDS-PAGE under non-reducing condition aggregates (a), and refolded protein (b and c); C, refolded TSA1-NT (b) after one month at 4° C. under reducing (lanes 1,3) and non-reducing conditions (lane 2).
FIGS. 10A, B and C. SDS-PAGE analysis of refolded TSA-1 C4 by Size-Exclusion Chromatography. A, the collected fractions of the main peak of seven consecutive refolding batches of denatured TSA-1 C4 (in 1.6×100 XK column packed with 185 ml of Sepharose 6FF) were analyzed by 10% SDS-PAGE under non-reducing conditions; batch1 (Lanes 2 and 3), batch 2 (Lanes 4 and 5), batch 3 (Lanes 6 and 7), batch 4 (Lanes 8 and 9), batch 5 (Lanes 10 and 11), batch 6 (Lanes 12 and 13), batch 7 (Lanes 14 and 15). B, Refolded TSA-1-C4 was stored at 4° C. in refolding buffer (lanes 1,4), Tris-HCl (lanes 2 and 5) and PBS (lanes 3 and 6) buffers. Samples were analyzed by SDS-PAGE under non-reduced conditions before (lanes 1, 2 and 3) and after one month (lanes 4, 5 and 6) of storage at 4° C. C, the stability of refolded TSA-1-C4 was tested by orbital stirring at 25 rpm and 20° C. for 24 (lane 2), 48 (lane 3) and 120 h (lane 4), and by cycles of freezing (−80° C.)-thawing at 24 h (lane 5), 48 (lane6) and (lane 7). Molecular Weight marker (lane 1).
(§1) In order to develop as a recombinant protein vaccine that can be used in humans in endemic areas, the coding DNA for TSA-1-NT was identified and codon optimized for expression in E. coli. The synthesized DNA was cloned into pET41a, a bacterial expression vector with an IPTG inducible T7 promoter. The recombinant TSA-1-NT/pET41a plasmid DNA was transformed into E. coli BL21(DE3). […] The on-column refolded TSA-1-NT was soluble but aggregated when stored at 4° C. one month (FIG. 4C). Aggregation causes problems with reproducibility and consistency, and would prevent the protein from being developed into a vaccine formulation. We hypothesized that the reason for the aggregation was the interaction of four cysteine residues in the sequence of the molecule (C248, C267, C360, C447) that could lead to intermolecular disulfide bridges.
However, and more importantly, and unlike TSA-1 NT, after purification on a nickel column or ion-exchange chromatography (FIGS. 8A and B) and refolding on a size-exclusion column (FIGS. 9A and B). The refolded TSA-1-C4 was concentrated by ultrafiltration, analyzed by SDS-PAGE (FIG. 10A) and it was stable.

[2] = Solubility of recombinant protein expressed in E. coli BL21(DE3) (SDS-PAGE of soluble fraction and inclusion bodies; 8M urea); assay type: physicochemical; details: for solubility of protein as expressed in E. coli: E. coli BL21(DE3), induced with 0.5 mM IPTG
Experimental: FIGS. 3A and B. SDS-PAGE of expressed wild-type TSA-1-NT in E. coli BL21(DE3) induced with 0.5 mM IPTG from 0-16 hours.
FIGS. 6A and B. SDS-PAGE of expressed TSA-1-C4 in E. coli BL21(DE3) induced with 0.5 mM IPTG over 16 hours.
as §1
The coding DNA for TSA-1-C4 (SEQ ID NO: 5) was codon optimized for expression in E. coli, synthesized by GenScript, and cloned into pET41a with an octahistidine-tag (SEQ ID NO: 11, HHHHHHHH, shaded in FIG. 5A) or without an octahistidine-tag (SEQ ID NO: 3, FIG. 2 and FIG. 5B) expressed at its C-terminus. The recombinant plasmid DNAs were transformed into E. coli BL21(DE3) and selected on LB agar plates containing 30 μg/mL of kanamycin. The correct sequences and reading frames were confirmed by double-strand DNA sequencing with vector flanking primers.

T. cruzi [3] = details: mice; cited from earlier work
T. cruzi [4] = details: formulated with E6020-SE; versus Tc24+E6020-SE; cited from earlier work
[5] = cited from earlier work
H1 Trypanosoma cruzi = test: Therapeutic vaccine efficacy: parasitemia in H1 Trypanosoma cruzi-infected mice; assay type: in vivo; details: 20 μg antigen IM, acute infection, compared to untreated controls
Experimental: FIGS. 11A and B. Therapeutic effect of TSA-1-C4 alone or with Tc24-C4 and in a combination with or without benznidazole (BZN) treatment. H1 Trypanosoma cruzi-infected mice were treated with Tc24-C4 and TSA-1-C4, […] and given orally 25 mg/kg BZN per day for 20 days. A, Kinetic parasitemia was recorded each 3 days during the acute infection. Standard bars represent the error of the mean. B, Area under the curve (AUC) was graphed using the simple method of Gagnon. Histograms represent the mean and standard bars the error of the mean.
Briefly, H1 Trypanosoma cruzi-infected mice were treated with Tc24-C4 and TSA-1-C4, 20 μg each and given orally 25 mg/kg BZN per day for 20 days. Kinetic parasitemia was recorded each 3 days during the acute infection (FIG. 11A), and the area under the curve (AUC) was graphed (FIG. 11B).

| Molecule | aggregation of on-column refolded protein on storage [1] | aggregation when compounded into vaccine compositions ([1]; vaccine compositions) | solubility in 8M urea [2] | solubility of protein as expressed in E. coli [2] | protective immunity (T. cruzi [3]) | protection (mouse survival rate and parasitemia levels in blood) (T. cruzi [4]) | solubility of protein as expressed in E. coli ([5]; E. coli (BL21)) | aggregation on storage ([5]; purified protein stored at 4° C. for 9 days, Western blot, light-scattering, HPLC-RP) | levels of parasites in the blood (parasitemia, AUC) (H1 Trypanosoma cruzi) | aggregation under stirring ([1]; after 120 h under orbital stirring, 25 rpm, 20° C.) | aggregation after cycles of freezing-thawing ([1]; freezing (−80° C.)-thawing at 24, 48 and 120 h) |
| --- | --- | --- | --- | --- | --- | --- | --- | --- | --- | --- | --- |
| TSA-1-NT: N-terminal fragment of TSA-1 (aa 30-617), wild-type cysteines [reference compound] | aggregated | aggregates | soluble in 8M urea | expressed as insoluble protein in inclusion body | induces protective immunity | – | – | – | – | – | – |
| Tc24-C4: Recombinant T. cruzi Tc24 with 4 cysteine residues mutated to serine residues (protein, synthetic recombinant protein based on TSA1 from T. cruzi, Recombinant T. cruzi Tc24 with 4 cysteine residues mutated to serine residues) MGASGSKGSTSDKGLASDKDGKNAKDRKEAWERIRQAIPREKTAEAKQRRIELFKKFDKNETGKLSYDEVHSGSLEVLKLDEFTPRVRDITKRAFDKARALGSKLENKGSEDFVEFLEFRLMLSYIYDFFELTVMFDEIDASGNMLVDEEELKRAVPKLEAWGAKVEDPAALFKELDKNGTGSVTFDEFAAWASAVKLDADGDPDNVPESA | – | – | – | – | – | similarly protected | soluble protein | did not form any aggregation | – | – | – |
| TSA-1-C4: Recombinant T. cruzi TSA-1 fragment, four cysteines mutated to serine (C248S, C267S, C360S, C447S), plus 43 C-terminal amino acids (protein, synthetic recombinant protein based on TSA1 from T. cruzi, Recombinant T. cruzi TSA-1 fragment, four cysteines mutated to serine (C248S, C267S, C360S, C447S), plus 43 C-terminal amino acids) MERNSGDLQLPQEIAMLVPNKTQVVPKSGGEGKVKDIFASPALVRAGGVMIAFVEGRTKNKLFPEVIDLSSSDIVAGYIKAPETWQSLVAEVTKEYWQAHTVLESANNSNHRVGVARLPTGITRGNKVFLLVGSYEERREIDDYIWKAEAWNIKVIEGEATQSTEVQPTQPINWSEPKPLFQTDSPNNKGDLKEFLGGGGSGIVMGNGTLVFPLTAKDESNKVFSLITYSTDDGQKWEIPGGVSSVASRSPRVTEWEEGTLLMVTYSEDGRKVFESRDMGKTWTEAFGTLPGVWLKSGPELPEVSLRVDALITATIEGRKVMLYTQKVRHFLEVDEPNALHLWVTDNNRTFHLGPFSVDSAENKTFANTLLYSDDALHLLQAKGDHESTAVSLARLTEELNTINSVLSTWVQLDASFSESSIPTAGLVGFLSNTTSSGDTWIDGYRSMNATVTKAAKVENGFKFTGPGSRATWPVNSRWDIKQYGFVDYNFTIVAMATIHQVPSESTPLLGASLRGNKRTKLIGLSYGAGGKWETVYDGTKTVQGGTWEPGREYQVALMLQDGNKGFVYVDGVLVGNPAMLPTPEERWTEFSHFYFGGDEGDSGSDATLTDVFLYNRPLSVGELKMIKEVED | No aggregation observed | – | soluble in 8M urea | expressed as insoluble protein in inclusion bodies | – | – | – | – | significantly lower levels of parasites in the blood | No aggregation observed | No aggregation observed |

— patent US20240108707A1, “CHAGAS DISEASE VACCINE ANTIGENS WITH IMPROVED STABILITY AND DECREASED AGGREGATION” (Baylor College of Medicine, priority 2019, published 2024)
